Positions count from the first letter of the chain named. Names and notes keep the numbering of the source.
B1: 39633-G1 (designed binder)
chain: MTIPEIIIKVRGTQVVGSDMTVIVEFSNPFKETLRNVWVHLDGPGVTRPMKKMFREIPPKTTVQWEEVVRPWVSGHRKLIASMRTQYLIHLYGELDVQIQRRDYKDDDDK
notes: group M1-A50; V91L
B2: 39633-F5 (I3Y, M83I) (designed binder)
chain: B1 chain with I3Y, S27T, N36S, M83I
notes: group M1-A50; V91L, I3Y, M83I
B3: 39633-E2 (designed binder)
chain: B1 chain with R55C, I57V, P58R, K60N, T61S, T62V
notes: group M1-A50; V91L
B4: 39633-B3 (designed binder)
chain: B1 chain with S27T, F30L, K31S, E32Q, R35S, N36A
notes: group M1-A50; V91L
B5: 39633-F4 (designed binder)
chain: B1 chain with R55C, P58R, K60N, T61S, T62I
notes: group M1-A50; V91L
B6: 39633-C5 (designed binder)
chain: B1 chain with S27T, N36S, E56V
notes: group M1-A50; V91L; also called M34 (clone ID)
B7: 45927-E1 (designed binder)
chain: MTIPEIIIKVRGTQVVGSDMTVIVEFTNPLKETLRNVWVHLDGPGVTRPMKKMFTGILQWSTVQWEEVVRPWVSGHRKLIASMSPHAWWQHHGNFSVYGELDVQIQRRDYKDDDDK
notes: group M2-Aext
B8: 39973-B12 (designed binder)
chain: MTIPEIIIKVRGTQVVGSDMTVIVEFKHDRYRYLQQVWVHLDGPGVTRPMKKMFKLIIFSYPVQWEEVVRPWVSGHRKLIASMRFMCPSHVYGELDVQIQRRDYKDDDDK
notes: group M3-A
B9: 45927-A11 (designed binder)
chain: MTIPEIIIKVRGTQVVGSDMTVIVEFTNPLKETLRNVWVHLDGPGVTRPMKKMFQKIPGCSTVQWEEVVRPWVSGHRKLIASMSMLGLPFSLRFIPVYGELDVQIQRRDYKDDDDK
notes: group M1-Aext
B10: 45927-B7 (M50T) (designed binder)
chain: B9 chain with M50T, Q55L
notes: group M1-Aext; M50T
B11: 39908-E1 (designed binder)
chain: MTIPEIIIKVRGTQVVGSDMTVIVEFTNLWKEALRNVWMHLDGPGVTRPMKKMFREIATMSTVQWEEVVRPWVSGHRKLIASMTLRPWHVYGELDVQIQRRDYKDDDDK
notes: group M3-A50; FG loop -TLRPW; V39M; also called M04 (clone ID)
B12: 39973-G3 (designed binder)
chain: MTIPEIIIKVRGTQVVGSDMTVIVEFTNPLKETLRNVWVHLDGPGVTRPMKKMFEQIRESEYVQWEEVVRPWVSGHRKLIASMLTETRPHVYGELDVQIQRRDYKDDDDK
notes: group M3-A
B13: 39633-D6 (designed binder)
chain: MTIPEIIIKVRGTQVVGSDMTVIVEFTNPFKETLRNVWVHLDGPGVTRPMKKMFCEIRPNSIVQWEEVVRPWVSGHRKLIARCSLSPWHVYGELDVQIQRRDYKDDDDK
notes: group M3-A50; ΔS82, M83R; also called M020 (clone ID)
B14: 39908-F5 (designed binder)
chain: B13 chain with S84Q, S86L
notes: group M3-A50; ΔS82, M83R; also called M16 (clone ID)
B15: 39908-B2 (designed binder)
chain: B13 chain with N36S, C55R, R58P, N60K, S61T, I62T, S84Q, S86L
notes: group M3-A50; ΔS82, M83R; also called M07 (clone ID)
B16: 39908-A7 (designed binder)
chain: B13 chain with T27S, C83M, S84T, S86R
notes: group M3-A50; ΔS82, M83R; also called M24 (clone ID)
B17: 39908-A2 (designed binder)
chain: B13 chain with C55R, E56D, N60K, S61T, I62K
notes: group M3-A50; ΔS82, M83R; also called M03 (clone ID)
B18: 39908-C6 (designed binder)
chain: B13 chain with N36S
notes: group M3-A50; ΔS82, M83R; also called M05 (clone ID)
B19: 39633-G6 (designed binder)
chain: B11 chain with L29P, W30F, A33T, N36S, M39V, A58P, T59P, M60K, S61T
notes: group M3-A50; FG loop printed -TLRPW (one residue deleted), no scaffold mutation printed; also called M18 (clone ID)
B20: 39908-A3 (designed binder)
chain: B13 chain with N36S, S61R
notes: group M3-A50; ΔS82, M83R; also called M09 (clone ID)
B21: 39908-E5 (designed binder)
chain: B13 chain with T27S, C55S, I62T
notes: group M3-A50; ΔS82, M83R; also called M56 (clone ID)
B22: 39633-A5 (V46I) (designed binder)
chain: B13 chain with T27S, V46I, I57V
notes: group M3-A50; ΔS82, M83R, V46I
B23: 39908-H4 (designed binder)
chain: B13 chain with T27S, C55R, E56D, N60K, S61T, I62K, S84Q, S86L
notes: group M3-A50; ΔS82, M83R; also called M015 (clone ID)
B24: 39908-D2 (designed binder)
chain: B13 chain with N36S, C55R, R58P, N60K, S61T, I62T
notes: group M3-A50; ΔS82, M83R; also called M29 (clone ID)
B25: 39908-A1 (designed binder)
chain: B13 chain with T27S
notes: group M3-A50; ΔS82, M83R; also called M02 (clone ID)
B26: 39908-C11 (designed binder)
chain: B13 chain with T27S, C55S, P59T, S61A, I62T
notes: group M3-A50; ΔS82, M83R; also called M22 (clone ID)
B27: 45927-A10 (designed binder)
chain: MTIPEIIIKVRGTQVVGSDMTVIVEFTNPKRDTSVWLRNVWVHLDGPGVTRPMKKMFFTIGYPSTVQWEEVVRPWVSGRRKLIASMSPSILSKGNIGLGVYGELDVQIQRRDYKDDDDK
notes: group M3-Aext; H76R (wild type scaffold numbering)
B28: 45927-A12 (designed binder)
chain: MTIPEIIIKVRGTQVVGSDMTVIVEFTNPLRVSEQTLRNVWVHLDGLGVTRPMKKMFGGIRVHSTVQWEEVVRPWVSGHRKLIASMSYVAEYGEWTHYSVYGELDVQIQRRDYKDDDDK
notes: group M3-Aext
B29: 45927-E5 (designed binder)
chain: MTIPEIIIKVRGTQVVGSDMTVIVEFTNPSNYRPCILRNVWVHLDGPGVTRPMKKMFKMIVYHSTVQWEEVVRPWVSGHRKLIASMSKFELSGTSSRGRVYGELDVQIQRRDYKDDDDK
notes: group M3-Aext

Each binder was assayed against T1, human myostatin (human, UniProt O14793 267-375, biotinylated in selections and radioactive assays (site not stated)) (assay: radioactive equilibrium binding assay).
T1 construct: Phage ELISA used both unbiotinylated and biotinylated myostatin; also called biotinylated human myostatin; myostatin-biotin
T1 sequence (looked up): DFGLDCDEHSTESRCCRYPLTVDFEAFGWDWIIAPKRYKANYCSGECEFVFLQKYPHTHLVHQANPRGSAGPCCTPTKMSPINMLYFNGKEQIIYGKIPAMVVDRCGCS
Experimental: Affinities of selected F13β2 binders to biotinylated myostatin were determined in radioactive equilibrium binding assay (FIGS. 11A and 11B; Table 3). ³⁵S-labeled binder proteins from selection pools and single clones were produced in vitro in a rabbit reticulocyte lysate translation kit (Ambion) and purified on M2-agarose (Sigma). Varying concentrations of biotinylated human myostatin (0-100 nM) or other proteins (protein 1: 100 nM; peptide 1: 250 nM; protein 2: 50 nM) were incubated with a constant concentration of the purified binder protein (1 or 2 nM) at 30° C. for 30 min in buffer B (1×PBS, 0.02% Triton X-100 [pH 7.4]). The receptor-binder complexes were captured by using 25 μl of M280 or Protein A (Dynal) (protein 2) magnetic beads for 10 min at room temperature on a Kingfisher instrument (Thermo Fisher Scientific). The beads were washed five times with 100 μl buffer B, and the amount of ³⁵S-methionine remained on the beads was measured by scintillation counting. Data were analyzed by using the GraphPad Prism software (GraphPad Software, Inc., San Diego, Calif.), fitted with a one-site, nonlinear binding equation. For inhibition assay the binding of ³⁵S-labeled proteins to 20 or 25 nM of biotinylated human myostatin was performed in the presence of varying concentrations of inhibitor (human activin receptor IIB/Fc chimera (R&D Systems, Minneapolis, Minn.) (0-250 nM); protein 1 (100 nM), peptide 1 (250 nM), protein 2 (50 nM); proteins, produced in E. coli, M17, M7, M29, M21, M1-1, WT F13β2 (500 nM)).

| Binder | B max | Kd |
| --- | --- | --- |
| B1 | 52% | 38.9 nM |
| B2 | 69.7% | 32.1 nM |
| B3 | 21% | 27.3 nM |
| B4 | 6.14% | 9.93 nM |
| B5 | 28.5% | 26.8 nM |
| B6 | 93% | 30.8 nM |
| B7 | 4.57% | 6.04 nM |
| B8 | 7.77% | 34.5 nM |
| B9 | 41.2% | 65 nM |
| B10 | 46.4% | 57.6 nM |
| B11 | 40.2% | 14.8 nM |
| B12 | 1.81% | 22 nM |
| B13 | 79.6% | 20.3 nM |
| B14 | 67.2% | 27.1 nM |
| B15 | 75.9% | 27.1 nM |
| B16 | 109% | 20.1 nM |
| B17 | 68.5% | 15.2 nM |
| B18 | 52.2% | 19.7 nM |
| B19 | 75.1% | 19.7 nM |
| B20 | 57.2% | 11 nM |
| B21 | 77.8% | 21.9 nM |
| B22 | 78.3% | 19.4 nM |
| B23 | 68.6% | 15.8 nM |
| B24 | 68.8% | 23.3 nM |
| B25 | 50.2% | 12 nM |
| B26 | 73.7% | 17 nM |
| B27 | 8.07% | 16.1 nM |
| B28 | 3.08% | 1.47 nM |
| B29 | 8.36% | 64.1 nM |

— US20110059504A1 (GENERAL HOSPITAL, published 2011)
